Earlier results as cited in US10927175B2, “Method for treating cancer” (Sun Jet Biotechnology Inc., priority 2017, dated 2021).

Test system: metastatic duodenal adenocarcinoma
Settings: gradually decreasing prednisolone and replacing tacrolimus with sirolimus after nivolumab

Substance: nivolumab
- allograft outcome: preserved
- tumor outcome: regressed
